Measurements published in the supplement of paper PMC10567573.

B1: KLHL14 (parent)
chain: WLYCYDPVMDVWARKQDMNTKRAI

Variants of: B1
Assay: protein stability index of a GFP-peptide fusion (GPS, HEK-293T) (PSI 1-6); higher = more stable
Details: c terminus: a fixed tail appended
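Further: lentivirally expressed fusions sorted by FACS into six bins by GFP to DsRed ratio, PSI derived from sequencing read proportions per bin multiplied by bin number.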

Protein stability index, by site and new letter:
N19: P 1.93, K 2.02, F 1.52, R 1.83, L 2.05, V 2.55, C 1.76, W 2.53, E 1.81, Q 2.2, Y 1.72, S 1.83, I 1.57
K15: Y 2.08, W 1.48
T20: S 1.99, R 1.77, W 2.34, G 2.57, D 2.15, Y 2.02, I 1.91, L 2.28, C 1.62, A 2.07, K 2.15, Q 1.99, H 1.88, P 2, V 2.11, N 1.85, F 1.44, E 1.95, M 1.7
D17: Y 1.67, S 2.38, T 1.78, N 1.91, C 1.74, G 1.97, R 2.34, W 2.58, P 2.16, K 1.65, I 1.94, E 1.8, V 2.06, A 2.33, F 2.24, H 2.21, M 2.2, Q 2.06, L 2.48
M18: E 2.4, L 1.82, N 2.77, H 2.55, C 1.86, Y 2.17, P 1.98, D 3.05, A 2.15, G 3.03, Q 2.08, R 2.48, W 2.86, K 2.1, I 2.28, V 2.19, S 2.39, T 2.13, F 2.56
K21: Q 1.86, M 2.08, H 1.94, L 1.88, A 1.78, C 2.23, E 1.91, T 1.83, F 1.86, S 1.91, P 1.58, W 2.2, D 2.34, V 1.91, I 1.71, Y 1.92, N 1.81, G 2.61, R 1.83
I24: N 2.29, C 1.99, Q 2.79, T 1.87, E 2.31, Y 2.45, G 2.13, P 2.68, W 2.39, A 2.36, K 2.44, V 2.53, H 2.63, D 2.92, L 2.25, M 2.16, S 2.86, R 1.4, F 1.42
A23: Y 1.92, F 2.24, T 1.76, W 1.37, D 2.22, K 1.97, C 1.78, I 1.57, N 1.7, L 1.6, R 2.62, G 1.51, S 1.97, E 2.33, Q 2.11, V 1.63, P 1.58, M 2.22, H 2.02
Q16: T 1.83, P 1.85, D 2.15, F 1.85, I 1.81, L 1.72, A 2.42, K 1.7, H 2.27, E 2.4, S 1.94, M 2.5, G 2.25, N 2.16, Y 1.69, R 1.95, C 1.81, V 2.29, W 2.7
R22: S 2.12, W 1.69, A 2.32, P 1.8, Q 1.77, F 1.51, Y 2.01, G 1.69, D 2.13, E 2.19, V 1.72, I 1.74, C 2.15, L 1.83, H 2.01, N 1.82, M 1.88, T 1.91, K 2
